Reference: patent US20220298235A1 (AKESO BIOPHARMA, published 2022)
Values belong to the binder of their own block, whether it stands above or below them.

Columns and labels:
[1] = target: T1, human p40-His (human, UniProt P29460 23-328); test: indirect ELISA, p40-His coat 0.25 µg/mL
T1 construct: Made by Akeso Biopharma; construct limits and tag not described; also called human IL-12/IL-23 p40 protein domain; human IL-12/IL-23 p40; not shown: His tag
T1 sequence (looked up): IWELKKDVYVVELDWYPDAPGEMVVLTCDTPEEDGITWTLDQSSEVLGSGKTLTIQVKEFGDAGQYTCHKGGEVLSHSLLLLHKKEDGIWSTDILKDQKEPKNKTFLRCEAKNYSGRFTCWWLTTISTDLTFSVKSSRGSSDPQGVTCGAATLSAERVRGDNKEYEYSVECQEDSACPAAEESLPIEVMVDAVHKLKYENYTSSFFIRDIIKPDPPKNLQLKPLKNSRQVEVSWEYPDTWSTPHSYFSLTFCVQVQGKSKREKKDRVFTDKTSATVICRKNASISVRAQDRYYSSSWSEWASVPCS
Method: (§1) A microplate was coated with human p40-His (Akeso Biopharma, Inc.; gene of p40: GeneBank NM002187). After incubation at 4° C. for no less than 12 h, the plate was washed with PBST, patted dry and blocked with a solution of 1% BSA in PBS. After blocking was completed, the plate was washed with PBST and patted dry. The antibody diluted with PBST solution in gradient was added into the wells of the plate, and the antibody dilution gradient is detailed in Table 1. The plate containing the test antibody was incubated at 37° C. for 30 min and then washed with PBST and patted dry. […] TMB (Neogen, 308177) was added for color developing for 5 min in the absence of light, and then stop solution was added to terminate the chromogenic reaction. Then the plate was put into a plate reader immediately, and the OD value of each well in the plate was read at 450 nm. The data were analyzed by SoftMax Pro 6.2.1.
The binding EC₅₀ of antibody was calculated by curve fitting using antibody concentration as the abscissa and absorbance value as the ordinate, and the results are shown in Table 4 below.

[2] = target: T2, Human IL12 (His Tag) (human, UniProt P29459 23-219; P29460 23-328); test: FACS competition, IL12-His (40 nM mixed 1:1) on 293T-IL-12Rβ1&IL-23R cells
T2 construct: Bought His-tagged heterodimer
T2 sequence (looked up) 1: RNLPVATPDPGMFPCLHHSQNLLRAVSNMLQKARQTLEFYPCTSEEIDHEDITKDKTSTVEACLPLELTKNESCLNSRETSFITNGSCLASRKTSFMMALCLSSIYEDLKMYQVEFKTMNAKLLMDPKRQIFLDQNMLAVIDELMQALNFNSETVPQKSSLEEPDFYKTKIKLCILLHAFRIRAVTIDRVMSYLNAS
T2 sequence (looked up) 2: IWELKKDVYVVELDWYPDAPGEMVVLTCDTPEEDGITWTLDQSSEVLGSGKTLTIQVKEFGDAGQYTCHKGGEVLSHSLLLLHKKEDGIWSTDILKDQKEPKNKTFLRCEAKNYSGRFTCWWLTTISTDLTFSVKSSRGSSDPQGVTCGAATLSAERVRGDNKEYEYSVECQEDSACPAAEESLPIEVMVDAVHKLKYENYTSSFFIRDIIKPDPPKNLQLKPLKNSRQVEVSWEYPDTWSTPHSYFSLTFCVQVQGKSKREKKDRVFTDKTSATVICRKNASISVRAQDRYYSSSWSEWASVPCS
Method: 200 μL of 1% PBSA was added into each sample, and the mixture was centrifuged at 1200 rpm for 5 min to discard the supernatant. According to experiment design, correspondingly diluted antibody (highest final concentration of 60 μg/mL, 3-fold dilution, 8 concentrations in total) and IL12-His (Sino Biological, Cat. No.: CT-050-H08H-20) (40 nM) were mixed at a ratio of 1:1, and a blank control was set. The mixture of antibody and IL12 was incubated on ice for 30 min and then added to the cell precipitate at 100 μL/sample. The resulting mixture was well mixed and incubated on ice for 60 min 200 μL of 1% PBSA was added, and the mixture was centrifuged at 1200 rpm for 5 min to discard the supernatant, and then washed twice. THETM His tag antibody (FITC) (Genscript, Cat. No.: A01620) was diluted at a ratio of 1:500 and added to each tube at 100 μL. The mixture was well mixed and incubated on ice for 40 min in the absence of light. 200 μL of 1% PBSA was added, and the mixture was centrifuged at 1200 rpm for 5 min to discard the supernatant, and then washed twice. 1% PBSA was added at 200 μL/tube, and the cells were resuspended and transferred to a flow cytometry tube for testing.

[3] = target: T3, human IL-23 (IL-23-His-Biotin) (human, UniProt Q9NPF7 20-189; P29460 23-328, biotin label, site not stated); test: FACS competition, IL23-His-Biotin (4 µg/mL mixed 1:1) on 293T-IL-12Rβ1&IL-23R cells
T3 construct: Akesobio lot 20161209; His-tagged and biotinylated
T3 sequence (looked up) 1: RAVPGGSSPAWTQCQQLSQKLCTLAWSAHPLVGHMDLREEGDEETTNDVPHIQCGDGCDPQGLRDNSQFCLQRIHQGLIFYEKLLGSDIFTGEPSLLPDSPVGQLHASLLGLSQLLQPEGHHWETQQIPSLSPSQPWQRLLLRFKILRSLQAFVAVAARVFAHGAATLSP
T3 sequence (looked up) 2: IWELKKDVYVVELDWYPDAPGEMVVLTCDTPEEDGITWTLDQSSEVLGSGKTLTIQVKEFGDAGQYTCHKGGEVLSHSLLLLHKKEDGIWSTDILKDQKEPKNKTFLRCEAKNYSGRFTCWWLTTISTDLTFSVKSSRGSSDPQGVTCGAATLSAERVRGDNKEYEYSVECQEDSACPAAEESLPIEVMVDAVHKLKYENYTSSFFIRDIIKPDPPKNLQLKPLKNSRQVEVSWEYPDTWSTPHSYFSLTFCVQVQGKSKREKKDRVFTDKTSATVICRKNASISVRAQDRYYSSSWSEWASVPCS
Method: 200 μL of 1% PBSA was added into each sample, and the mixture was centrifuged at 1200 rpm for 5 min to discard the supernatant. According to experiment design, correspondingly diluted antibody (highest concentration of 60 μg/mL, 3-fold dilution, 8 concentrations in total) and human IL23-His-Biotin (Akeso Biopharma, Inc., Lot. No.: 20161209) (4 μg/mL) were mixed at a ratio of 1:1, and a blank control was set. The mixture of antibody and IL23-His-Biotin was incubated on ice for 30 min and then added to the cell precipitate at 100 μL/sample. The resulting mixture was well mixed and incubated on ice for 60 min. 200 μL of 1% PBSA was added, and the mixture was centrifuged at 1200 rpm for 5 min to discard the supernatant, and then washed twice. FITC Steptavidin (Biolegend, Cat. No.: 405202) was diluted at a ratio of 1:500 and added to each tube at 100 μL. The mixture was well mixed and incubated on ice for 40 min in the absence of light. 200 μL of 1% PBSA was added, and the mixture was centrifuged at 1200 rpm for 5 min to discard the supernatant, and then washed twice. 1% PBSA was added at 200 μL/tube, and the cells were resuspended and transferred to a flow cytometry tube for testing.

[4] = target: T1, human p40-His; test: indirect ELISA, p40-His coat 0.125 µg/mL
Method: as §1
The binding EC₅₀ of antibody was calculated by curve fitting using antibody concentration as the abscissa and absorbance value as the ordinate, and the results are shown in Table 2 below.

[5] = target: T1, human p40-His; test: indirect ELISA, p40-His coat 0.125 µg/mL; remark: listed apart in the source
Method: as §1
The binding EC₅₀ of antibody was calculated by curve fitting using antibody concentration as the abscissa and absorbance value as the ordinate, and the results are shown in Table 1 below.

EC50 [1]: 0.077 nM | EC50 [2]: 1.58 µg/mL | EC50 [3]: 1.43 µg/mL
B1: ustekinumab (antibody, V domains shown)
VH: EVQLVQSGAEVKKPGESLKISCKGSGYSFTTYWLGWVRQMPGKGLDWIGIMSPVDSDIRYSPSFQGQVTMSVDKSITTAYLQWNSLKASDTAMYYCARRRPGQGYFDFWGQGTLVTVSS
VL: DIQMTQSPSSLSASVGDRVTITCRASQGISSWLAWYQQKPEKAPKSLIYAASSLQSGVPSRFSGSGSGTDFTLTISSLQPEDFATYYCQQYNIYPYTFGQGTKLEIK

EC50 [4]: 0.057 nM
B2: H5L10 (antibody, human IgG1, kappa, V domains shown)
VH: EVQLVQSGAEVKKPGESLKISCQSSGYSFTTYWIGWVRQMPGQGLEWIGIMSPVDSDIRYNPMFRGQVTMSVDKSSSTAYLQWSSLKASDTAMYYCARRRPGQGYFDFWGQGTMVTVSS
VL: EIVLTQSPATLSASPGERATISCRASQSVGSWLAWYQQKPGQAPRSLIYAASNLQSGIPARFSGSGSGTDFTLTISSLEPEDFAVYYCQQYNIYPYTFGQGTRLEIKR
notes: human IgG1 / kappa constant regions; also called humanized antibody H5L10

EC50 [5]: 0.079 nM
B3: H5L9 (antibody, human IgG1, kappa, V domains shown)
VH: EVQLVQSGAEVKKPGESLKISCQSSGYSFTTYWIGWVRQMPGQGLEWIGIMSPVDSDIRYNPMFRGQVTMSVDKSSSTAYLQWSSLKASDTAMYYCARRRPGQGYFDFWGQGTMVTVSS
VL: DIQMTQSPSSLSASVGDRVTITCKASQNVGSWLAWYQQKPGKAPKSLIYSASSRQSGVPSRFSGSGSGTDFTLTISSLQPEDFATYYCQQYDIYPFTFGQGTKLEIKR
notes: human IgG1 (P01857) / kappa (P01834) constant regions; also called humanized antibody H5L9
